Columns and labels:
[1] = biological target: ST6Gal-I cysteine mutant C24S (UniProt P15907); assay: FRET in cells (homomer assembly); conditions: n = 3, 15,000 cells each; parent: est. 100; read off a plot
[2] = biological target: β1,4-galactosyltransferase B4GalT-I (UniProt P15291); assay: FRET in cells (heteromer assembly); conditions: n = 3, 15,000 cells each; parent: est. 100; read off a plot
[3] = biological target: T1, ST6Gal-I cysteine mutant C406A, P15907; assay: FRET in cells (homomer assembly); conditions: chain shown with the change; n = 3, 15,000 cells each; parent: est. 100; read off a plot
T1 chain: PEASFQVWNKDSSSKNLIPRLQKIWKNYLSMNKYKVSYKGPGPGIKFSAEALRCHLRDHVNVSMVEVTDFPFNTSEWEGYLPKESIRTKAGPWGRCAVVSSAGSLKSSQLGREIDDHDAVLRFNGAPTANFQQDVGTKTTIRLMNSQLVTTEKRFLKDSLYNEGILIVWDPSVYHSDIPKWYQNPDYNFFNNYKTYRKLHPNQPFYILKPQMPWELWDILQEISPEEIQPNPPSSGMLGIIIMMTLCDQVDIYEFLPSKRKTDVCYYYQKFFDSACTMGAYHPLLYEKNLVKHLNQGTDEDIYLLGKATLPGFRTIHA

[4] = biological target: T2, β1,4-galactosyltransferase B4GalT-I, P15291; assay: FRET in cells (heteromer assembly); conditions: chain shown with the change; n = 3, 15,000 cells each; parent: est. 100; read off a plot
T2 chain: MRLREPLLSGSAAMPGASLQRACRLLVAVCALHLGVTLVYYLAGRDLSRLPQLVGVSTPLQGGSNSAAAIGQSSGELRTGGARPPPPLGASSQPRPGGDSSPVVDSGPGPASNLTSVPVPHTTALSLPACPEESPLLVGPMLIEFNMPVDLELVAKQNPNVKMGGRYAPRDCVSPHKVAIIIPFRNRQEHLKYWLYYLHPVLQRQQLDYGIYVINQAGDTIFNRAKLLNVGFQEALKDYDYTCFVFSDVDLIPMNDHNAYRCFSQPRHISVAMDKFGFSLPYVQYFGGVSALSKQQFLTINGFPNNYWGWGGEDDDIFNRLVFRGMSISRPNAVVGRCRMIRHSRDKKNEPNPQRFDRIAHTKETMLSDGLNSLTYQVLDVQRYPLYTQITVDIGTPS

[5] = biological target: T3, ST6Gal-I cysteine mutant C353A, P15907; assay: FRET in cells (homomer assembly); conditions: chain shown with the change; n = 3, 15,000 cells each; parent: est. 100; read off a plot
T3 chain: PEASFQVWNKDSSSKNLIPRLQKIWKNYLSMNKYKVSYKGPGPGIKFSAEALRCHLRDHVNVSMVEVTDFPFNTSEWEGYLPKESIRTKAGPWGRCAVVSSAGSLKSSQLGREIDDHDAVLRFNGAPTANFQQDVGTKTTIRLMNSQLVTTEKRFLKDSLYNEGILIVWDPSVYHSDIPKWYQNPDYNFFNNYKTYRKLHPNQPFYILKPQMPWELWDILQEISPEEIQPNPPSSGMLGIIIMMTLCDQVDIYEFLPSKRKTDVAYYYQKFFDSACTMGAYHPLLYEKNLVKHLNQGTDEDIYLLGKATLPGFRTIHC

α-2,6-sialyltransferase ST6Gal-I, wild type (from UniProt P15907) C24S
percent of parent (% of WT control) [1]: 70 | percent of parent (% of WT control) [2]: 97

B1: α-2,6-sialyltransferase ST6Gal-I, wild type, P15907 C406A (protein)
chain: PEASFQVWNKDSSSKNLIPRLQKIWKNYLSMNKYKVSYKGPGPGIKFSAEALRCHLRDHVNVSMVEVTDFPFNTSEWEGYLPKESIRTKAGPWGRCAVVSSAGSLKSSQLGREIDDHDAVLRFNGAPTANFQQDVGTKTTIRLMNSQLVTTEKRFLKDSLYNEGILIVWDPSVYHSDIPKWYQNPDYNFFNNYKTYRKLHPNQPFYILKPQMPWELWDILQEISPEEIQPNPPSSGMLGIIIMMTLCDQVDIYEFLPSKRKTDVCYYYQKFFDSACTMGAYHPLLYEKNLVKHLNQGTDEDIYLLGKATLPGFRTIHA
percent of parent (% of WT control) [3]: 60 | percent of parent (% of WT control) [4]: 84

B2: α-2,6-sialyltransferase ST6Gal-I, wild type, P15907 C353A (protein)
chain: PEASFQVWNKDSSSKNLIPRLQKIWKNYLSMNKYKVSYKGPGPGIKFSAEALRCHLRDHVNVSMVEVTDFPFNTSEWEGYLPKESIRTKAGPWGRCAVVSSAGSLKSSQLGREIDDHDAVLRFNGAPTANFQQDVGTKTTIRLMNSQLVTTEKRFLKDSLYNEGILIVWDPSVYHSDIPKWYQNPDYNFFNNYKTYRKLHPNQPFYILKPQMPWELWDILQEISPEEIQPNPPSSGMLGIIIMMTLCDQVDIYEFLPSKRKTDVAYYYQKFFDSACTMGAYHPLLYEKNLVKHLNQGTDEDIYLLGKATLPGFRTIHC
percent of parent (% of WT control) [5]: 83

Reference: article PMC6454061
